Experimental data from patent publication EP4640709A1.

Legend:
[1] = molecular target: mouse CX3CR1 (mouse) (UniProt Q9Z0D9); experiment: flow cytometry, CX3CR1-expressing Ba/F3 cells, 200 nM, grade vs positive antibody (+++ >70%, ++ 40-70%, + 10-40%, - <10%); this antibody is itself the 100% reference
[2] = molecular target: rat CX3CR1 (rat) (UniProt P35411); experiment: as above
[3] = molecular target: mouse CX3CR1 (mouse) (UniProt Q9Z0D9); experiment: flow cytometry, chimeric CX3CR1-expressing Ba/F3 cells, 200 nM, grade vs positive antibody (+++ >70%, ++ 40-70%, + 10-40%, - <10%)
[4] = molecular target: cynomolgus monkey CX3CR1 (cynomolgus monkey); experiment: flow cytometry, CX3CR1-expressing Ba/F3 cells
[5] = molecular target: human CX3CR1 (human) (UniProt P49238); experiment: flow cytometry, CX3CR1-expressing Ba/F3 cells
Sequence of human CX3CR1 (human) (P49238 whole entry): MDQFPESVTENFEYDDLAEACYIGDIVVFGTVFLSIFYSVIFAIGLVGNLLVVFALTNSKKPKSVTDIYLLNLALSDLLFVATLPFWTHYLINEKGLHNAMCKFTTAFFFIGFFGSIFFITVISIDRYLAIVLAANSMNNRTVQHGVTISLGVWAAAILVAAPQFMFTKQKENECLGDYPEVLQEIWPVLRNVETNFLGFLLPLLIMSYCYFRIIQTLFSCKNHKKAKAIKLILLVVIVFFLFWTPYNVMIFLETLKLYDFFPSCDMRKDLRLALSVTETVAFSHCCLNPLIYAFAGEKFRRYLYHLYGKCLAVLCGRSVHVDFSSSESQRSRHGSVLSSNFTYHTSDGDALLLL

[6] = molecular target: human CX3CR1 (human) (UniProt P49238); experiment: flow cytometry, chimeric CX3CR1-expressing Ba/F3 cells
[7] = molecular target: human CX3CR1 (human) (UniProt P49238); experiment: flow cytometry, chimeric CX3CR1-expressing Ba/F3 cells, 200 nM, grade vs positive antibody (+++ >70%, ++ 40-70%, + 10-40%, - <10%)
[8] = molecular target: mouse CX3CR1 (mouse) (UniProt Q9Z0D9); experiment: flow cytometry, chimeric CX3CR1-expressing Ba/F3 cells

Sequence of mouse CX3CR1 (mouse) (Q9Z0D9 whole entry): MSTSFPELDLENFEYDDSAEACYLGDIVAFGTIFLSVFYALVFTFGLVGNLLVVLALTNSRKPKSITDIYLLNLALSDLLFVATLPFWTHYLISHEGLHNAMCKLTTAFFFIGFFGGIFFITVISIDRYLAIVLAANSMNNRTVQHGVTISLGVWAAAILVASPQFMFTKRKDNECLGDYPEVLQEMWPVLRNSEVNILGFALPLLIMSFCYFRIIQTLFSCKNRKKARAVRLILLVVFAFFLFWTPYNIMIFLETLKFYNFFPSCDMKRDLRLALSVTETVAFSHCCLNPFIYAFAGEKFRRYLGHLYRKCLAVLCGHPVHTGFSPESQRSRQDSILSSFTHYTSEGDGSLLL
Sequence of rat CX3CR1 (rat) (P35411 whole entry): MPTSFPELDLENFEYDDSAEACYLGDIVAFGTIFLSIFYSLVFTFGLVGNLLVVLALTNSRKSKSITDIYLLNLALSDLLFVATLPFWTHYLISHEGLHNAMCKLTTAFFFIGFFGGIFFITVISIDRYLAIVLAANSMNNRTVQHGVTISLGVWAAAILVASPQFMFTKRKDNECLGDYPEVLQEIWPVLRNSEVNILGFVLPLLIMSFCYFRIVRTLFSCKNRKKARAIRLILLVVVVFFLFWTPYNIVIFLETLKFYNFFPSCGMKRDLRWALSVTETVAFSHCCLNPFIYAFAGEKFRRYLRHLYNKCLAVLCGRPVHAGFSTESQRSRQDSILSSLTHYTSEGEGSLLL

| relative value (% reactivity, MFI) compared to positive antibody at 200 nM [1] [%] | relative value (% reactivity, MFI) compared to positive antibody at 200 nM [2] [%] | relative value (% reactivity, MFI) compared to positive antibody at 200 nM [3] [%] | relative value (% reactivity, MFI) compared to positive antibody at 200 nM [4] [%] | relative value (% reactivity, MFI) compared to positive antibody at 200 nM [5] [%] | relative value (% reactivity, MFI) compared to positive antibody at 200 nM [6] [%] | relative value (% reactivity, MFI) compared to positive antibody at 200 nM [7] [%] | relative value (% reactivity, MFI) compared to positive antibody at 200 nM [8] [%] | Substance |
| --- | --- | --- | --- | --- | --- | --- | --- | --- |
| > 70 | > 70 | > 70 | < 10 | < 10 | < 10 |  |  | anti-mouse CX3CR1 antibody SA011F11 (Biolegend) |
|  |  |  |  |  |  | 40 to 70 | < 10 | anti-hCX3CR1 antibody K0124E1 (Biolegend) |
